A value given as a limit tells only on which side of the number the result lay.

The target in assay [1] is T1, HER3 ECD-HRG complex (Heregulin-activated Her-3 ECD) (human, UniProt P21860 20-643).
T1 construct: receptor-ligand complex made by preincubating HER3 ECD with a five-fold molar excess of Heregulin; also called Heregulin/Her-3 ECD; Heregulin-complexed Her-3 ECD
Nature of the assay: SPR Biacore 3000, antibody captured, 25 C. The procedure:
(§1) A CM5 series sensor was mounted into the system and was normalized in HBS-ET buffer (10 mM HEPES pH 7.4, 150 mM NaCl, 3 mM EDTA, 0.005% w/v Tween 20) according to the manufacturer's instructions. The sample buffer was the system buffer supplemented with 1 mg/ml CMD (Carboxymethyldextran). The system operated at 25° C. 10000 RU RAM-Fey (relative units of Fey-fragment Rabbit Anti-Mouse IgG/Jackson Laboratories) were immobilized according to the manufacturer's instructions using EDC/NHS chemistry on all flow cells. The sensor was deactivated using 1M ethanolamine.

For assay [2], the target named is T2, HER2 ECD peptide hairpin, overlapping immobilized 15-mer peptides (human, UniProt P04626 269-287, limits assumed).
T2 construct: domain: peptide hairpin (β-hairpin); CelluSpots 15-mer library; cysteines replaced by serines; also called hairpin motive in the HER2 ECD
T2 peptide (looked up): PALVTYNTDTFESMPNPEG
As to the kind of experiment: CelluSpots array of overlapping 15-mer peptides.

Assay [3] has as its target T3, HER1 (EGFR) ECD peptide hairpin, overlapping immobilized 15-mer peptides (human, UniProt P00533 265-283, limits assumed).
T3 construct: domain: peptide hairpin (β-hairpin); CelluSpots 15-mer library; cysteines replaced by serines; also called hairpin motive in EGFR
T3 peptide (looked up): PPLMLYNPTTYQMDVNPEG
Nature of the assay: CelluSpots array of overlapping 15-mer peptides.

For assay [4], the target named is T4, HER4 ECD peptide hairpin (β-hairpin of HER4), overlapping immobilized 15-mer peptides (human).
T4 construct: CelluSpots library of 15-mers as for HER3; cysteines replaced by serines; also called HER4 β-hairpin
T4 peptide: PQTFVYNPTTFQLEHNFNA
As to the kind of experiment: CelluSpots array of overlapping 15-mer peptides of the HER family hairpins, chemiluminescence.

Assay [5] concerns the target T1, HER3 ECD-HRG complex …. As to the kind of experiment: SPR Biacore 3000, antibody captured, Biacore two-state model, ka1, 25 C; ka1, first step of the two-state fit. The procedure: as §1
Assay [6] deals with T1, HER3 ECD-HRG complex …. As to the kind of experiment: SPR Biacore 3000, antibody captured, Biacore two-state model, apparent KD from ka1 and kd2, 25 C; apparent KD of the two-state model, kd2 / ka1. The procedure:
as §1
In general terms: Surface plasmon resonance follows binding to a sensor surface in real time, without labels.

Assay [7] has as its target T5, human HER3, full length, on cells (T47D, MCF7, transfected HEK293) (human, UniProt P21860 20-1342).
T5 construct: endogenous on T47D and MCF7 tumor cells, transient full length in HEK293 (formalin fixed for IHC); also called expressed HER3 ECD
Nature of the assay: FACS on T47D cells, 0 minutes incubation.

Assay [8] concerns the target T1, HER3 ECD-HRG complex …. Nature of the assay: SPR Biacore 3000, antibody captured, Biacore two-state model, kd1, 25 C; kd1, first step of the two-state fit; not the kd2 used for KDapp. The procedure: as §1
Assay [9] concerns the target T6, HER1, full length, on transfected HEK293 cells (human, UniProt P00533 25-1210).
T6 construct: HEK293 transiently transfected with a plasmid coding for full length HER1; also called EGFR
As to the kind of experiment: IHC on HEK293 cells transiently transfected with full length HER1. The method, then: All selected clones were tested for reactivity and specificity in IHC. […] After an additional fixation in formalin overnight the Agarose blocks were embedded in paraffin. Untransfected HEK293 cells were used as negative controls and treated accordingly to the transfected cells. After paraffin embedding 3 μm thin sections were prepared using a microtome. The sections were mounted on glass microscopy slides and dried for 2 h. All further steps of the immunohistochemical staining procedure were carried out using a Ventana Benchmark XT. The slides were dewaxed and antigen retrieval was performed by applying heat for 1 hour. For antigen retrieval the Ventana buffer CC1 was used. The antibodies were used at a concentration of 1 μg/ml. For the detection of bound antibody the Ventana UltraView detection kit was used.

Another assay concerns the target T7, TtSlyDcys-Her3.
T7 chain: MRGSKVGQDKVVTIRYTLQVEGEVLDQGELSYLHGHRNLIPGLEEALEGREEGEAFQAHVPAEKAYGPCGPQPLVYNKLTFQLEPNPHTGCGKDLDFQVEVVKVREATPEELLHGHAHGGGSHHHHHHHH
As to the kind of experiment: SPR Biacore T200, antibody captured, 25 C. The procedure:
A Biacore T200 instrument (GE Healthcare) was mounted with a CM5 series sensor. The sensor was normalized in HBS-ET buffer (10 mM HEPES pH 7.4, 150 mM NaCl, 3 mM EDTA, 0.05% w/v Tween 20) according to the manufacturer's instructions. The sample buffer was the system buffer supplemented with 1 mg/ml CMD (Carboxymethyldextran, Sigma #86524). The system operated at 25° C. 6500 RU RAM-Fcγ (relative units of Fcγ-fragment RamlgG, GE Healthcare) were immobilized according to the manufacturer's instructions using amine coupling EDC/NHS chemistry on all four flow cells. The sensor was deactivated using 1M ethanolamine. […] Concentration dependent kinetics were measured. […] All analytes were injected for 5 min association time and 10 min dissociation time at 100 μl/min flow rate. The sensor capture system was regenerated by a 3 min injection at 10 μl/min of 10 mM glycine pH 1.7. Where possible kinetic data was evaluated using the Biacore T200 evaluation software.

B1: anti-HER3 antibody M-08-11 (antibody, V domains shown)
VH: QAYLQQSGAELMRPGASVRMSCQASGYTFTSYTIHWLKQTPRQGLEWIGAIYPRNGDFSYNQKFKDKASLTVDTSSSTAYMHLSSLTSEDSAVYFCARTINYGDWFAYWGQGTLVTVSA
VL: DIQMIQSPASLFVSEGETVIITCRASENIYSNLAWYHQKKGKSPQVLVYAAIKLADGVPLRFSGSGSGTQFSLKINSLQSEDFGSYYCQHFWGPPYTFGSGTNLEIK
notes: mouse monoclonal antibody from hybridoma, tested as hybridoma supernatant or as antibody; also called M-011
Take B1: in [1], the “MR (Molar Ratio)” value was 1.1. Besides, the binding result is recorded as “no binding (tested: 1 µg/mL)” in assay [2], “no binding (tested: 1 µg/mL)” in assay [3], “no binding” in assay [4] and “no binding” in assay [9]. Besides, the kon (in general, the rate constant with which the complex forms) in [5] was 45800 M⁻¹ s⁻¹. In [6], the Kd is 18 nM. Also, in assay [7], the “fold binding level with HRG against without HRG” value is not below 2 fold. The koff (as a rule, the rate constant with which the complex falls apart) in assay [8] amounted to 0.0502 s⁻¹.

B2: anti-HER3 antibody M-43-01 (antibody, V domains shown)
VH: EVQLQQSGTVLARPGASVKMSCKASDYTFSNYWVHWVKQRPGQGLEWIGAIYPGNGDSTYYQKFKGKATLTAVTSTSTAYMDLSSLTNGDSAVYFCTRSGVGYNYYFDYWGQGTTLTVSS
VL: DIQMTQSPASLSASVGETVTITCRASENIYSNLAWYQQKQGKSPQLLVYIATNLADGVPSRFSGSGSGTQFSLKINSLQPEDLGSYYCQHFYGTPFTFGTGTKLEIE
notes: mouse hybridoma clone
For B2, in the assay with TtSlyDcys-Her3, the Kd came out at 2.9 nM, the “MR (Molar Ratio)” value worked out at 1.7, the koff was found to be 0.00016 s⁻¹ and the kon was 54000 M⁻¹ s⁻¹.
